The values that follow come from patent US20030119090.

Series [1] addresses T1, Cbz-Thr(αManα1,2Man)-Val-OMe (Compound 11).
T1 chain: TV

Series [2] concerns the target T2, Cbz-Thr(α-Man)-Val-Gly-Ala-NH2 (Compound 9).
T2 chain: TVGA

The target of series [3] is T3, Boc-Tyr-Thr(α-Man)-Val-OMe (Compound 10).
T3 chain: YTV

Series [4] concerns the target T4, Thr(α-Man)-Val-OMe (Compound 8).
T4 chain: TV

Series [5] has as its target T5, Cbz-Thr(α-Man)-Val-OMe (Compound 7).
T5 chain: TV

B1: recombinant α1,2-mannosyltransferase (soluble catalytic domain, protein sequence 31-442 of α1,2-ManT from S. cerevisiae, expressed from pManflag20 in the E. … (protein)
chain: RTQQYIPSSISAAFDFTSGSISPEQQVISEENDAKKLEQSALNSEASEDSEAMDEESKALKAAAEKADAPIDTKTTMDYITPSFANKAGKPKACYVTLVRNKELKGLLSSIKYVENKINKKFPYPWVFLNDEPFTEEFKEAVTKAVSSEVKFGILPKEHWSYPEWINQTKAAEIRADAATKYIYGGSESYRHMCRYQSGFFWRHELLEEYDWYWRVEPDIKLYCDINYDVFKWMQENEKVYGFTVSIHEYEVTIPTLWQTSMDFIKKNPEYLDENNLMSFLSNDNGKTYNLCHFWSNFEIANLNLWRSPAYREYFDTLDHQGGFFYERWGDAPVHSIAAALFLPKDKIHYFSDIGYHHPPYDNCPLDKEVYNSNNCECDQGNDFTFQGYSCGKEYYDAQGLVKPKNWKKFRE
In the case of B1, the Km (acceptor), mannosyl transfer reaction is 26 mM in series [1], 0.7 mM in series [3] and 7.8 mM in series [5]. The Vrelative (ratio of Vmax, ManαOMe = 1.0), mannosyl transfer from GDP-Man to acceptor was found to be 0.17 in series [1]; 0.55 in series [2]; 0.35 in series [3]; 0.68 in series [4]; 0.71 in series [5]. In addition, the “Km, fold lower than that of Compound 7” value in series [3] is on record as “This value is 10 times less than that of Compound 7”. Moreover, in series [3], the “Km, fold lower than that of ManαOMe (Compound 1)” value is listed as 80 times smaller than that of ManαOMe (Compound 1).
